Rolling parameter (ζ) data for two substances are collected here from article PMC8635412.

The target of experiment [1] is Biotinylated UBE3A HECT domain Q588E (METRIS) (human). The experiment can be described thus: METRIS (mechanically transduced immunosorbent assay, rolling magnetic probes); biotinylated ubiquitin on streptavidin-coated ferromagnetic beads rolling on avidin-coated slides coated with biotinylated UBE3A HECT domain; rotating magnetic field 1 Hz for 5 s; read-out rolling parameter (dimensionless).

Experiment [2] concerns the target Biotinylated UBE3A HECT domain, wild type (METRIS) (human). The experiment is described as above.

On to “Biotinylated Cys-ubiquitin (ubiquitin variant with an N-terminal cysteine) on streptavidin-coated ferromagnetic particles (from UniProt P0CG48 1-76) (natural protein)”, for which the rolling parameter (ζ) in experiment [1] is 0.247.
Turning to “Biotinylated Cys-ubiquitin (ubiquitin variant with an N-terminal cysteine) on streptavidin-coated ferromagnetic particles (from UniProt P0CG48 1-76)”, in experiment [2], the rolling parameter (ζ) came out at 0.178.
